The target of assay [1] is S1RBD-mFc (SARS-CoV-2 S1蛋白RBD与mFc的融合蛋白) (SARS-CoV-2).
For assay [2], the target named is S1RBD-his (SARS-CoV-2 S1蛋白RBD与His的融合蛋白) (SARS-CoV-2). In words: BLI (Octet QKe), antibody captured on AHC sensor, S1RBD-His in solution, 1:1 fit. (In BLI a coated tip is dipped into the sample, and binding shifts an interference pattern.)
In assay [3] the target is T1, MERS-S1 (MERS-CoV, UniProt K9N5Q8 18-725).
T1 construct: domain: S1
In words: ELISA. A general note: An ELISA detects its analyte on a solid surface through an enzyme-linked reagent.

Assay [4] addresses T2, SARS-S1 (SARS-CoV, UniProt P59594 14-667).
T2 construct: domain: S1
In words: ELISA.

B1: 重组抗体24G8 (antibody, V domains shown)
VH: EVQLVESGGGLVKPGGSLRLSCAASGFTFSSYSMNWVRQAPGKGLEWVSSISSSSSFIYYADSVKGRFTISRDNAKNSLYLQMNSLRAEDTAVYYCAREVHVDTAMDAYFDYWGQGTLVTVSS
VL: DIQMTQSPSSLSASVGDRVTITCRASQTISSYLNWYQQKPGKAPKLLIFAASSLQSGVPSRFSGSGSGTDFTLTISSLQPEDFATYYCQQSYSNPPLTFGGGTKVEIE
notes: also called 24G8-Biotin
A word on the IC50: it is the concentration that inhibits the measured activity by half. Higher therefore signals weaker potency in that assay. As a reminder, the Kd is the concentration at which binding is half-saturated. As a reminder, the koff is a measure of how fast the partners let go of each other. Low readings indicate slow dissociation, high ones fast dissociation. Usually kon stands for a measure of how fast the partners come together. Take B1: the IC50 in assay [1] is 11.4 nM. Besides, in assay [2], the Kd is 1.08 nM, the koff was 0.000264 s⁻¹ and the kon came to 244000 M⁻¹ s⁻¹.

B2: 重组抗体8B4 (antibody, V domains shown)
VH: EVQLVQSGAEVKKPGSSVKVSCKASGGTFSSFSISWVRQAPGQGLEWMGRIIPVLGIANYAQEVQGRVTITADKSTSTAYMELSSLRSEDTAVYFCTTDRFVEPATGPFFDYWGQGTLVTVSS
VL: EIVMTQSPATLSVSPGERATLSCRASQSVSSNLAWYQQKPGQAPRLLIYGASTRATGIPARFSGSGSGTEFTLTISSLQSEDFAVYYCQQYSNWLTFGGGTKVEIK
notes: also called 8B4-Biotin
B2: the binding result in assay [3] is recorded as “no binding”. The binding result in assay [4] is given as “no binding”. This molecule had an IC50 in assay [1] of 23.1 nM. Besides, in assay [2], the Kd is 7.7 nM, the koff is 0.00157 s⁻¹ and the association rate constant (kon) stood at 204000 M⁻¹ s⁻¹.

For the origin of these results see patent CN113388028A (SHENZHEN FUTIAN GEWU ZHIKANG PATHOGEN RES INSTITUTE; …, dated 2021).
